T1: Human BCMA (human, UniProt Q02223 1-54, limits assumed)
T1 construct: Soluble analyte in SPR; construct not described; also called huBCMA; B-cell maturation antigen
T1 sequence (looked up): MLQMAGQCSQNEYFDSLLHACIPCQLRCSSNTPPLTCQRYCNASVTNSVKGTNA


How the values were obtained:
Human BCMA [1] = biological target: T1, Human BCMA; assay: SPR, IgG immobilised, 25 C
Experimental: (§1) All experiments were performed on a Bio-Rad Proteon XPR36 surface Plasmon resonance biosensor (Bio-Rad, Hercules, Calif.). […] The analysis temperature for the immobilization was 25° C. and the running buffer was HBS-T+(10 mM HEPES, 150 mM NaCl, 0.05% Tween-20, pH 7.4). Channels were activated in the analyte (horizontal) direction by injecting a mixture of 1 mM ECD and 0.25 mM NHS for 3 minutes at a flow rate of 30 μL/min. IgGs were immobilized on the activated spots by injecting them in the ligand (vertical) direction at 20 μg/mL in 10 mM Acetate pH 4.5 buffer for 1.5 minutes at […]. The activated surfaces were blocked by injecting 1M ethanolamine, pH 8.5 in the analyte direction for 3 minutes at 30 μL/min.
(§2) The analysis temperature for the BCMA binding analysis was 37° C. or 25° C. in a running buffer of HBS-T+, supplemented with 1 mg/mL BSA. A kinetic titration method was employed for the interaction analysis as described in Abdiche, et al. Human BCMA (huBCMA) or cynomolgus monkey BCMA (cyBCMA) analyte was injected in the analyte direction using a series of injections from low to high concentration. The concentrations used were 0.08 nM, 0.4 nM, 2 nM, 10 nM and 50 nM (a 5-membered series, with a 5-fold dilution factor and top concentration of 50 nM). The association time for a given analyte dilution was two minutes. Immediately after the 50 nM BCMA injection, dissociation was monitored for 2 hours.
(§3) The sensorgrams were double-referenced and fit to a 1:1 Langmuir with mass transport kinetic titration model in BIAevaluation Software version 4.1.1 (GE Lifesciences, Piscataway, N.J.).

cynomolgus monkey BCMA [2] = biological target: T2, cynomolgus monkey BCMA (cynomolgus monkey, UniProt A0A2K5UD97 1-53); assay: SPR, IgG immobilised, 25 C
T2 construct: Soluble analyte in SPR; construct not described; also called cyBCMA; Cyno BCMA
Experimental: as §1, §2, §3

Human BCMA [3] = biological target: T1, Human BCMA; assay: SPR, IgG immobilised, 37 C
Summary of the method: (§4)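 Rate constants come from a 1:1 Langmuir model including mass transport, fitted to double-referenced sensorgrams. Analyte was human or cynomolgus BCMA in five rising concentrations up to 50 nM over amine-coupled IgG; runs were at 25° C or 37° C.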

cynomolgus monkey BCMA [4] = biological target: T2, cynomolgus monkey BCMA; assay: SPR, IgG immobilised, 37 C
Summary of the method: as §4

Human BCMA [5] = biological target: T1, Human BCMA; assay: SPR, IgG immobilised, 37 C; huBCMA @25° C.

T2 sequence (A0A2K5UD97 entry or part of it): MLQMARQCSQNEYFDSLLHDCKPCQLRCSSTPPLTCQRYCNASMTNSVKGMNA

| Binder | Kd (Human BCMA [1]) [nM] | T ½ (Human BCMA [1]) [min] | koff (Human BCMA [1]) [s⁻¹] | kon (Human BCMA [1]) [M⁻¹ s⁻¹] | Kd (cynomolgus monkey BCMA [2]) [nM] | T ½ (cynomolgus monkey BCMA [2]) [min] | koff (cynomolgus monkey BCMA [2]) [s⁻¹] | kon (cynomolgus monkey BCMA [2]) [M⁻¹ s⁻¹] | Kd (Human BCMA [3]) [nM] | T ½ (Human BCMA [3]) [min] | kon (Human BCMA [3]) [M⁻¹ s⁻¹] | Kd (cynomolgus monkey BCMA [4]) [nM] | T ½ (cynomolgus monkey BCMA [4]) [min] | koff (cynomolgus monkey BCMA [4]) [s⁻¹] | kon (cynomolgus monkey BCMA [4]) [M⁻¹ s⁻¹] | koff (Human BCMA [5]) [s⁻¹] |
| --- | --- | --- | --- | --- | --- | --- | --- | --- | --- | --- | --- | --- | --- | --- | --- | --- |
| L1.LGF/L3.PY/H3.AP (antibody, V domains shown, IgG) VH: EVQLLESGGGLVQPGGSLRLSCAASGFTFGSYAMTWVRQAPGKGLEWVSAISGSGGNTFYADSVKGRFTISRDNSKNTLYLQMNSLRAEDTAVYYCARVSPIAAPMDYWGQGTLVTVSS VL: EIVLTQSPGTLSLSPGERATLSCRASQSLGSFYLAWYQQKPGQAPRLLIYGASSRATGIPDRFSGSGSGTDFTLTISRLEPEDFAVYYCQHYPYPPSFTFGQGTKVEIK | 2.12 | 11.9 | 0.000969 | 457000 | 35.8 | 0.9 | 0.013 | 364000 |  |  |  |  |  |  |  |  |
| L1.LGF/L3.PY/H3.AQ (antibody, V domains shown, IgG) VH: EVQLLESGGGLVQPGGSLRLSCAASGFTFGSYAMTWVRQAPGKGLEWVSAISGSGGNTFYADSVKGRFTISRDNSKNTLYLQMNSLRAEDTAVYYCARVSPIAAQMDYWGQGTLVTVSS VL: EIVLTQSPGTLSLSPGERATLSCRASQSLGSFYLAWYQQKPGQAPRLLIYGASSRATGIPDRFSGSGSGTDFTLTISRLEPEDFAVYYCQHYPYPPSFTFGQGTKVEIK | 0.95 | 13 | 0.000886 | 931000 | 4.8 | 2.4 | 0.00477 | 1e+06 |  |  |  |  |  |  |  |  |
| L1.LGF/L3.NY/P6E01 (antibody, V domains shown, IgG) VH: EVQLLESGGGLVQPGGSLRLSCAASGFTFGSYAMTWVRQAPGKGLEWVSAISGSGGNTFYADSVKGRFTISRDNSKNTLYLQMNSLRAEDTAVYYCARVSPIASGMDYWGQGTLVTVSS VL: EIVLTQSPGTLSLSPGERATLSCRASQSLGSFYLAWYQQKPGQAPRLLIYGASSRATGIPDRFSGSGSGTDFTLTISRLEPEDFAVYYCQHYNYPPSFTFGQGTKVEIK | 3.32 | 2.63 | 0.0044 | 1.33e+06 | 11.4 | 1.1 | 0.0105 | 920000 |  |  |  |  |  |  |  |  |
| L1.LGF/L3.NY/H3.AP (antibody, V domains shown, IgG) VH: EVQLLESGGGLVQPGGSLRLSCAASGFTFGSYAMTWVRQAPGKGLEWVSAISGSGGNTFYADSVKGRFTISRDNSKNTLYLQMNSLRAEDTAVYYCARVSPIAAPMDYWGQGTLVTVSS VL: EIVLTQSPGTLSLSPGERATLSCRASQSLGSFYLAWYQQKPGQAPRLLIYGASSRATGIPDRFSGSGSGTDFTLTISRLEPEDFAVYYCQHYNYPPSFTFGQGTKVEIK | 0.57 | 21.7 | 0.000533 | 936000 | 6.7 | 2.1 | 0.00557 | 830000 |  |  |  |  |  |  |  |  |
| L3.KW/P6E01 (antibody, V domains shown, IgG) VH: EVQLLESGGGLVQPGGSLRLSCAASGFTFGSYAMTWVRQAPGKGLEWVSAISGSGGNTFYADSVKGRFTISRDNSKNTLYLQMNSLRAEDTAVYYCARVSPIASGMDYWGQGTLVTVSS VL: EIVLTQSPGTLSLSPGERATLSCRASQSVSSSYLAWYQQKPGQAPRLLIYGASSRATGIPDRFSGSGSGTDFTLTISRLEPEDFAVYYCKHYGWPPSFTFGQGTKVEIK | 0.43 | 36.7 | 0.000315 | 740000 | 3.4 | 4.5 | 0.00257 | 763000 |  |  |  |  |  |  |  |  |
| L3.PY/L1.PS/H2.QR (antibody, V domains shown, IgG) VH: EVQLLESGGGLVQPGGSLRLSCAASGFTFGSYAMTWVRQAPGKGLEWVSAISGSGGNTFYADQRKGRFTISRDNSKNTLYLQMNSLRAEDTAVYYCARVSPIASGMDYWGQGTLVTVSS VL: EIVLTQSPGTLSLSPGERATLSCRASQSVSSSYPSWYQQKPGQAPRLLIYGASSRATGIPDRFSGSGSGTDFTLTISRLEPEDFAVYYCQHYPYPPSFTFGQGTKVEIK |  |  |  |  |  |  |  |  | 25.9 | 0.11 | 3.97e+06 | 1.28 | 17.2 | 0.00067 | 525000 | 0.103 |
| L3.NY/P6E01 (antibody, V domains shown, IgG) VH: EVQLLESGGGLVQPGGSLRLSCAASGFTFGSYAMTWVRQAPGKGLEWVSAISGSGGNTFYADSVKGRFTISRDNSKNTLYLQMNSLRAEDTAVYYCARVSPIASGMDYWGQGTLVTVSS VL: EIVLTQSPGTLSLSPGERATLSCRASQSVSSSYLAWYQQKPGQAPRLLIYGASSRATGIPDRFSGSGSGTDFTLTISRLEPEDFAVYYCQHYNYPPSFTFGQGTKVEIK | 0.44 | 30.1 | 0.000384 | 876000 | 2.8 | 4 | 0.00287 | 1.01e+06 |  |  |  |  |  |  |  |  |

Source: patent US20160297884A1 (Pfizer, published 2016)
